# Values quoted from earlier work in PMC7395068, “The evolution of strategies to minimise the risk of human drug-induced liver injury (DILI) in drug discovery and development” (Archives of Toxicology, 2020).
# B1: pegvisomant (protein, UniProt P01241 27-217, looked up, variant H18D H21N Q22N F25S K41I Y42H L45W Q46W G120K R167N D171S E174S I179T)
# Somatotropin: FPTIPLSRLFDNAMLRADRLNNLASDTYQEFEEAYIPKEQIHSFWWNPQTSLCFSESIPTPSNREETQQKSNLELLRISLLLIQSWLEPVQFLRSVFANSLVYGASDSNVYDLLKDLEEKIQTLMGRLEDGSPRTGQIFKQTYSKFDTNSHNDDALLKNYGLLYCFNKDMSKVSTFLRTVQCRSVEGSCGF
# modifications: PEGylated
# B2: laronidase (protein, UniProt P35475 28-653, looked up)
# Alpha-L-iduronidase: APHLVHVDAARALWPLRRFWRSTGFCPPLPHSQADQYVLSWDQQLNLAYVGAVPHRGIKQVRTHWLLELVTTRGSTGRGLSYNFTHLDGYLDLLRENQLLPGFELMGSASGHFTDFEDKQQVFEWKDLVSSLARRYIGRYGLAHVSKWNFETWNEPDHHDFDNVSMTMQGFLNYYDACSEGLRAASPALRLGGPGDSFHTPPRSPLSWGLLRHCHDGTNFFTGEAGVRLDYISLHRKGARSSISILEQEKVVAQQIRQLFPKFADTPIYNDEADPLVGWSLPQPWRADVTYAAMVVKVIAQHQNLLLANTTSAFPYALLSNDNAFLSYHPHPFAQRTLTARFQVNNTRPPHVQLLRKPVLTAMGLLALLDEEQLWAEVSQAGTVLDSNHTVGVLASAHRPQGPADAWRAAVLIYASDDTRAHPNRSVAVTLRLRGVPPGPGLVYVTRYLDNGLCSPDGEWRRLGRPVFPTAEQFRRMRAAEDPVAAAPRPLPAGGRLTLRPALRLPSLLLVHVCARPEKPPGQVTRLRALPLTQGQLVLVWSDEHVGSKCLWTYEIQFSQDGKAYTPVSRKPSTFNLFVFSPDTGAVSGSYRVRALDYWARPGPFSDPVPYLEVPVPRGPPSPGNP
# B3: rasburicase (protein, UniProt Q00511 2-302, looked up)
# Uricase: SAVKAARYGKDNVRVYKVHKDEKTGVQTVYEMTVCVLLEGEIETSYTKADNSVIVATDSIKNTIYITAKQNPVTPPELFGSILGTHFIEKYNHIHAAHVNIVCHRWTRMDIDGKPHPHSFIRDSEEKRNVQVDVVEGKGIDIKSSLSGLTVLKSTNSQFWGFLRDEYTTLKETWDRILSTDVDATWQWKNFSGLQEVRSHVPKFDATWATAREVTLKTFAEDNSASVQATMYKMAEQILARQQLIETVEYSLPNKHYFEIDLSWHKGLQNTGKNAEVFAPQSDPNGLIKCTVGRSSLKSKL
# B4: pegademase bovine (protein, UniProt P56658 2-363, looked up)
# Adenosine deaminase: AQTPAFNKPKVELHVHLDGAIKPETILYYGRKRGIALPADTPEELQNIIGMDKPLSLPEFLAKFDYYMPAIAGCREAVKRIAYEFVEMKAKDGVVYVEVRYSPHLLANSKVEPIPWNQAEGDLTPDEVVSLVNQGLQEGERDFGVKVRSILCCMRHQPSWSSEVVELCKKYREQTVVAIDLAGDETIEGSSLFPGHVKAYAEAVKSGVHRTVHAGEVGSANVVKEAVDTLKTERLGHGYHTLEDATLYNRLRQENMHFEVCPWSSYLTGAWKPDTEHPVVRFKNDQVNYSLNTDDPLIFKSTLDTDYQMTKNEMGFTEEEFKRLNINAAKSSFLPEDEKKELLDLLYKAYGMPSPASAEQCL
# modifications: PEG conjugate
# B5: idursulfase (protein, UniProt P22304 34-455; P22304 456-550, looked up)
# Iduronate 2-sulfatase 42 kDa …: TDALNVLLIIVDDLRPSLGCYGDKLVRSPNIDQLASHSLLFQNAFAQQAVCAPSRVSFLTGRRPDTTRLYDFNSYWRVHAGNFSTIPQYFKENGYVTMSVGKVFHPGISSNHTDDSPYSWSFPPYHPSSEKYENTKTCRGPDGELHANLLCPVDVLDVPEGTLPDKQSTEQAIQLLEKMKTSASPFFLAVGYHKPHIPFRYPKEFQKLYPLENITLAPDPEVPDGLPPVAYNPWMDIRQREDVQALNISVPYGPIPVDFQRKIRQSYFASVSYLDTQVGRLLSALDDLQLANSTIIAFTSDHGWALGEHGEWAKYSNFDVATHVPLIFYVPGRTASLPEAGEKLFPYLDPFDSASQLMEPGRQSMDLVELVSLFPTLAGLAGLQVPPRCPVPSFHVELCREGKNLLKHFRFRDLEEDPYLPG
# Iduronate 2-sulfatase 14 kDa …: NPRELIAYSQYPRPSDIPQWNSDKPSLKDIKIMGYSIRTIDYRYTVWVGFNPDEFLANFSDIHAGELYFVDSDPLQDHNMYNDSQGGDLFQLLMP
# B6: pegaspargase (protein, UniProt P00805 23-348, looked up)
# L-asparaginase 2: LPNITILATGGTIAGGGDSATKSNYTVGKVGVENLVNAVPQLKDIANVKGEQVVNIGSQDMNDNVWLTLAKKINTDCDKTDGFVITHGTDTMEETAYFLDLTVKCDKPVVMVGAMRPSTSMSADGPFNLYNAVVTAADKASANRGVLVVMNDTVLDGRDVTKTNTTDVATFKSVNYGPLGYIHNGKIDYQRTPARKHTSDTPFDVSKLNELPKVGIVYNYANASDLPAKALVDAGYDGIVSAGVGNGNLYKSVFDTLATAAKTGTAVVRSSRVPTGATTQDAEVDDAKYGFVASGTLNPQKARVLLQLALTQTKDPQQIQQIFNQY
# modifications: PEG conjugate
# B7: tenecteplase (protein, UniProt P00750 36-562, looked up, variant T103N N117Q K296A H297A R298A R299A)
# Tissue-type plasminogen …: SYQVICRDEKTQMIYQQHQSWLRPVLRSNRVEYCWCNSGRAQCHSVPVKSCSEPRCFNGGTCQQALYFSDFVCQCPEGFAGKCCEIDTRATCYEDQGISYRGNWSTAESGAECTNWQSSALAQKPYSGRRPDAIRLGLGNHNYCRNPDRDSKPWCYVFKAGKYSSEFCSTPACSEGNSDCYFGNGSAYRGTHSLTESGASCLPWNSMILIGKVYTAQNPSAQALGLGKHNYCRNPDGDAKPWCHVLKNRRLTWEYCDVPSCSTCGLRQYSQPQFRIKGGLFADIASHPWQAAIFAAAAASPGERFLCGGILISSCWILSAAHCFQERFPPHHLTVILGRTYRVVPGEEEQKFEVEKYIVHKEFDDDTYDNDIALLQLKSDSSRCAQESSVVRTVCLPPADLQLPDWTECELSGYGKHEALSPFYSERLKEAHVRLYPSSRCTSQHLLNRTVTDNMLCAGDTRSGGPQANLHDACQGDSGGPLVCLNDGRMTLVGIISWGLGCGQKDVPGVYTKVTNYLDWIRDNMRP
# B8: pegfilgrastim (protein, UniProt P09919 31-207, looked up)
# Granulocyte …: TPLGPASSLPQSFLLKCLEQVRKIQGDGAALQEKLVSECATYKLCHPEELVLLGHSLGIPWAPLSSCPSQALQLAGCLSQLHSGLFLYQGLLQALEGISPELGPTLDTLQLDVADFATTIWQQMEELGMAPALQPTQGAMPAFASAFQRRAGGVLVASHLQSFLEVSYRVLRHLAQP
# modifications: N-terminal Met; PEG
# B9: imiglucerase (protein, UniProt P04062 40-536, looked up, variant R495H)
# Lysosomal acid …: ARPCIPKSFGYSSVVCVCNATYCDSFDPPTFPALGTFSRYESTRSGRRMELSMGPIQANHTGTGLLLTLQPEQKFQKVKGFGGAMTDAAALNILALSPPAQNLLLKSYFSEEGIGYNIIRVPMASCDFSIRTYTYADTPDDFQLHNFSLPEEDTKLKIPLIHRALQLAQRPVSLLASPWTSPTWLKTNGAVNGKGSLKGQPGDIYHQTWARYFVKFLDAYAEHKLQFWAVTAENEPSAGLLSGYPFQCLGFTPEHQRDFIARDLGPTLANSTHHNVRLLMLDDQRLLLPHWAKVVLTDPEAAKYVHGIAVHWYLDFLAPAKATLGETHRLFPNTMLFASEACVGSKFWEQSVRLGSWDRGMQYSHSIITNLLYHVVGWTDWNLALNPEGGPNWVRNFVDSPIIVDITKDTFYKQPMFYHLGHFSKFIPEGSQRVGLVASQKNDLDAVALMHPDGSAVVVVLNRSSKDVPLTIKDPAVGFLETISPGYSIHTYLWHRQ
# B10: interferon gamma-1b (protein, UniProt P01579 24-161, looked up)
# Interferon gamma: QDPYVKEAENLKKYFNAGHSDVADNGTLFLGILKNWKEESDRKIMQSQIVSFYFKLFKNFKDDQSIQKSVETIKEDMNVKFFNSNKKKRDDFEKLTNYSVTDLNVQRKAIHELIQVMAELSPAAKTGKRKRSQMLFRG
# Conditions: in vivo
Molecule,"DILI +VE (5-8), DILI -VE (-4)",DILI severity category
B1,-VE,Ambiguous DILI-concern
B2,-VE,Ambiguous DILI-concern
B3,-VE,vNo-DILI-Concern
B4,-VE,vNo-DILI-Concern
B5,-VE,vNo-DILI-Concern
B6,+VE,vLess-DILI-Concern
B7,-VE,vNo-DILI-Concern
B8,-VE,vNo-DILI-Concern
B9,-VE,vNo-DILI-Concern
B10,-VE,Ambiguous DILI-concern
